First the molecules themselves.
B1: Ly1612 (antibody, V domains shown)
VH: QVQLVQSGAEVKKPGASVKVSCKASGYTFTSYVMHWVRQKPGQGLEWIGYINPYNEGTESTDKFKGRATMTSDKSTSTVYMELSSLRSEDTAVYYCASIYYGYEGTYFGVWGQGTLVTVSS
VL: EIVLTQSPATLSLSPGERATLSCRASSSVSYMHWYQQKPGQAPRPWIYATSNLASGIPARFSGSRSGTDYTLTISSLEPEDFAVYYCQQWSSNTLTFGGGTKVEIK
notes: Parent mAb; also called Anti-B7H3 Ly1612; B7H3 mAb
B2: Ly2364 (other)
chain 1: QVQLVQSGAEVKKPGASVKVSCKASGYTFTSYVMHWVRQKPGQGLEWIGYINPYNEGTESTDKFKGRATMTSDKSTSTVYMELSSLRSEDTAVYYCASIYYGYEGTYFGVWGQGTLVTVSSASTKGPSVFPLAPSSKSTSGGTAALGCLVKDYFPEPVTVSWNSGALTSGVHTFPAVLQSSGLYSLSSVVTVPSSSLGTQTYICNVNHKPSNTKVDKKVEPKSCGGGGSGGGGSGGGGSGGGGSGGGGSEVQLVESGGGLVQPGGSLRLSCAASGFTFSTYAMNWVRQAPGKGLEWVGRIRSKYNNYATYYADSVKGRFTISRDDSKNSLYLQMNSLKTEDTAVYYCVRHGNFGNSYVSWFAYWGQGTLVTVSSGGGGSDKTHTCPPCPAPEAAGPSVFLFPPKPKDTLMISRTPEVTCVVVDVSHEDPEVKFNWYVDGVEVHNAKTKPREEQYNSTYRVVSVLTVLHQDWLNGKEYKCKVSNKALPAPIEKTISKAKGQPREPQVYTLPPSREEMTKNQVSLWCLVKGFYPSDIAVEWESNGQPENNYKTTPPVLDSDGSFFLYSKLTVDKSRWQQGNVFSCSVMHEALHNHYTQKSLSLSPGGGGGSGGGGSGGGGSGGGGSQVQLVQSGAEVKKPGASVKVSCKASGYTFAGFEMHWVRQAPGQGLEWMGAIDPKTGGTDYNQKFKDRVTMTRDTSISTAYMELSRLRSDDTAVYYCARDLGYFDVWGQGTLVTVSS
chain 2: QVQLVQSGAEVKKPGASVKVSCKASGYTFTSYVMHWVRQKPGQGLEWIGYINPYNEGTESTDKFKGRATMTSDKSTSTVYMELSSLRSEDTAVYYCASIYYGYEGTYFGVWGQGTLVTVSSASTKGPSVFPLAPSSKSTSGGTAALGCLVKDYFPEPVTVSWNSGALTSGVHTFPAVLQSSGLYSLSSVVTVPSSSLGTQTYICNVNHKPSNTKVDKKVEPKSCGGGGSGGGGSGGGGSGGGGSGGGGSQAVVTQEPSLTVSPGGTVTLTCRSSTGAVTTSNYANWVQQKPGQAPRGLIGGTNKRAPWTPARFSGSLLGGKAALTITGAQAEDEADYYCALWYSNLWVFGGGTKLTVLGGGGSDKTHTCPPCPAPEAAGPSVFLFPPKPKDTLMISRTPEVTCVVVDVSHEDPEVKFNWYVDGVEVHNAKTKPREEQYNSTYRVVSVLTVLHQDWLNGKEYKCKVSNKALPAPIEKTISKAKGQPREPQVYTLPPSREEMTKNQVSLSCAVKGFYPSDIAVEWESNGQPENNYKTTPPVLDSDGSFFLVSKLTVDKSRWQQGNVFSCSVMHEALHNRFTQKSLSLSPGGGGGSGGGGSGGGGSGGGGSDIQMTQSPSSLSASVGDRVTITCRASQDIRSNLNWYQQKPGGAVKLLIYYTSRLHSGVPSRFSGSGSGTDYTLTISSLQPEDFATYFCQQSEKLPRTFGGGTKVEIR
light: EIVLTQSPATLSLSPGERATLSCRASSSVSYMHWYQQKPGQAPRPWIYATSNLASGIPARFSGSRSGTDYTLTISSLEPEDFAVYYCQQWSSNTLTFGGGTKVEIKRTVAAPSVFIFPPSDEQLKSGTASVVCLLNNFYPREAKVQWKVDNALQSGNSQESVTEQDSKDSTYSLSSTLTLSKADYEKHKVYACEVTHQGLSSPVTKSFNRGEC
notes: Tri-specific antibody: B7H3 Fabs, central CD3 Fv, terminal CD137 Fv; Flexible linker is (G4S)5
B3: Ly2365 (other)
chain 1: QVQLVQSGAEVKKPGASVKVSCKASGYTFTSYVMHWVRQKPGQGLEWIGYINPYNEGTESTDKFKGRATMTSDKSTSTVYMELSSLRSEDTAVYYCASIYYGYEGTYFGVWGQGTLVTVSSASTKGPSVFPLAPSSKSTSGGTAALGCLVKDYFPEPVTVSWNSGALTSGVHTFPAVLQSSGLYSLSSVVTVPSSSLGTQTYICNVNHKPSNTKVDKKVEPKSCGGGGSGGGGSGGGGSEVQLVESGGGLVQPGGSLRLSCAASGFTFSTYAMNWVRQAPGKGLEWVGRIRSKYNNYATYYADSVKGRFTISRDDSKNSLYLQMNSLKTEDTAVYYCVRHGNFGNSYVSWFAYWGQGTLVTVSSGGGGSDKTHTCPPCPAPEAAGPSVFLFPPKPKDTLMISRTPEVTCVVVDVSHEDPEVKFNWYVDGVEVHNAKTKPREEQYNSTYRVVSVLTVLHQDWLNGKEYKCKVSNKALPAPIEKTISKAKGQPREPQVYTLPPSREEMTKNQVSLWCLVKGFYPSDIAVEWESNGQPENNYKTTPPVLDSDGSFFLYSKLTVDKSRWQQGNVFSCSVMHEALHNHYTQKSLSLSPGGGGGSGGGGSGGGGSGGGGSQVQLVQSGAEVKKPGASVKVSCKASGYTFAGFEMHWVRQAPGQGLEWMGAIDPKTGGTDYNQKFKDRVTMTRDTSISTAYMELSRLRSDDTAVYYCARDLGYFDVWGQGTLVTVSS
chain 2: QVQLVQSGAEVKKPGASVKVSCKASGYTFTSYVMHWVRQKPGQGLEWIGYINPYNEGTESTDKFKGRATMTSDKSTSTVYMELSSLRSEDTAVYYCASIYYGYEGTYFGVWGQGTLVTVSSASTKGPSVFPLAPSSKSTSGGTAALGCLVKDYFPEPVTVSWNSGALTSGVHTFPAVLQSSGLYSLSSVVTVPSSSLGTQTYICNVNHKPSNTKVDKKVEPKSCGGGGSGGGGSGGGGSQAVVTQEPSLTVSPGGTVTLTCRSSTGAVTTSNYANWVQQKPGQAPRGLIGGTNKRAPWTPARFSGSLLGGKAALTITGAQAEDEADYYCALWYSNLWVFGGGTKLTVLGGGGSDKTHTCPPCPAPEAAGPSVFLFPPKPKDTLMISRTPEVTCVVVDVSHEDPEVKFNWYVDGVEVHNAKTKPREEQYNSTYRVVSVLTVLHQDWLNGKEYKCKVSNKALPAPIEKTISKAKGQPREPQVYTLPPSREEMTKNQVSLSCAVKGFYPSDIAVEWESNGQPENNYKTTPPVLDSDGSFFLVSKLTVDKSRWQQGNVFSCSVMHEALHNRFTQKSLSLSPGGGGGSGGGGSGGGGSGGGGSDIQMTQSPSSLSASVGDRVTITCRASQDIRSNLNWYQQKPGGAVKLLIYYTSRLHSGVPSRFSGSGSGTDYTLTISSLQPEDFATYFCQQSEKLPRTFGGGTKVEIR
light: B2 light
notes: Tri-specific antibody: B7H3 Fabs, central CD3 Fv, terminal CD137 Fv; Flexible linker is (G4S)3

This test has as its target T1, B7H3 (human, UniProt Q5ZPR3 29-466, limits assumed).
T1 sequence (looked up): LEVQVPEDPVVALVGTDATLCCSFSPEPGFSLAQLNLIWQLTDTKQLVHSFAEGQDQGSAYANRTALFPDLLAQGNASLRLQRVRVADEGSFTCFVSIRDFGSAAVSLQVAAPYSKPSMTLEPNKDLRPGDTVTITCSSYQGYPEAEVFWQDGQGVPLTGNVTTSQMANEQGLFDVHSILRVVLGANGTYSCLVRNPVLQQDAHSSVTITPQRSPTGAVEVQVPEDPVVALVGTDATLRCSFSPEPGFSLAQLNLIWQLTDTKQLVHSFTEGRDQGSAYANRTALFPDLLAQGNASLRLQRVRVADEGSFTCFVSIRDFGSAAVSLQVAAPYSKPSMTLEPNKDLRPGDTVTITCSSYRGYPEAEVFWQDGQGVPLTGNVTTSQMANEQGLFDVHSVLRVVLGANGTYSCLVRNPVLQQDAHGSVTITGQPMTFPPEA
The test can be described thus: ELISA or FCM (Example 2). (In general: ELISA stands for enzyme-linked immunosorbent assay.)
Consider B1, for which the binding result is reported as “binds”.

In the case of B2, the binding result is “binds”.

For the molecule B3, the binding result was “binds”.

The values above are taken from patent US20250388669A1 (published 2025).
